In patent publication US20220332804A1 (CSL INNOVATION, published 2022):
Substitutions are numbered along the chain they refer to. In names and notes the source's numbering stands.

Key:
human complement C2 [1] = target: T1, human complement C2 (human, UniProt P06681 21-752); assay: cell-based or functional assay
T1 sequence: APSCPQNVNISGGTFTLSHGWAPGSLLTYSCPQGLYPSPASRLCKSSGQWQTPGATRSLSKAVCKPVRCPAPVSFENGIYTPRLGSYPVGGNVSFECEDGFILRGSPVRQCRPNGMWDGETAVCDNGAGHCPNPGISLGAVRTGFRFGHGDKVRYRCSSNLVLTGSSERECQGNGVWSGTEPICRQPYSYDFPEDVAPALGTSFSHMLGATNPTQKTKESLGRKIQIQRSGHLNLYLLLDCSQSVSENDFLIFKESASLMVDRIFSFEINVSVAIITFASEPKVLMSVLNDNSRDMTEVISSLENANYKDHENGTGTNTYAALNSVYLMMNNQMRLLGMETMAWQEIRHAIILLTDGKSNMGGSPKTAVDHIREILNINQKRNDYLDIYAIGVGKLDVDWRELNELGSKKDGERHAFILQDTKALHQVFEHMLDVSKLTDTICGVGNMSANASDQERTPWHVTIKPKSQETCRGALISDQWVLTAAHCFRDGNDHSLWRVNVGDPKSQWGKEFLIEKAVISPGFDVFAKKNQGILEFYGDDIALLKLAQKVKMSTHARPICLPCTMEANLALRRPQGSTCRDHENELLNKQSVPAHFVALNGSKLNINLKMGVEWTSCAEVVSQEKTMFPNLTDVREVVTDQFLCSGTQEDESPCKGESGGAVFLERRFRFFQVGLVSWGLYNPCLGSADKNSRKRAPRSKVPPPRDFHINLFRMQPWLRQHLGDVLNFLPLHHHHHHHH

cynomolgus monkey C2 [2] = target: T2, cynomolgus monkey C2 (cynomolgus monkey, UniProt G8F3W0 21-752); assay: cell-based or functional assay
T2 sequence: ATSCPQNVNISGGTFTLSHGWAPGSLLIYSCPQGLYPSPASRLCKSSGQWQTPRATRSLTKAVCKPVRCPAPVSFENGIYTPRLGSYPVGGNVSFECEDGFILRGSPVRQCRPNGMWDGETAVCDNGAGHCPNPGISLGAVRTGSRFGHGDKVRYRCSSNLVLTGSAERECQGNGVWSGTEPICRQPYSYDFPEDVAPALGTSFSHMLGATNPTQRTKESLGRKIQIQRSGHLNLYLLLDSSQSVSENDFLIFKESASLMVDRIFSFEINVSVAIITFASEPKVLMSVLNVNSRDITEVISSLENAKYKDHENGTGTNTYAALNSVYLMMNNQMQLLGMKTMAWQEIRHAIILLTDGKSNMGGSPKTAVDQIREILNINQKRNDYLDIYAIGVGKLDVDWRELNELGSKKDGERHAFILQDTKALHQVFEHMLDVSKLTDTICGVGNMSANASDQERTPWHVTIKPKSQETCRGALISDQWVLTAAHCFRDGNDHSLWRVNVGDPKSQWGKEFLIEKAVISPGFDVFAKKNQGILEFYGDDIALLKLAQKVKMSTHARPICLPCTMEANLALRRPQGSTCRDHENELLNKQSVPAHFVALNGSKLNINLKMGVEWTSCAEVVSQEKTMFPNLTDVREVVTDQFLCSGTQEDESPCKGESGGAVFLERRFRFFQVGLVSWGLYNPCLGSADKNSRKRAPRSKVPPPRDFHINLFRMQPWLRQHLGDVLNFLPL

human complement C2 [3] = target: T1, human complement C2; assay: cell-based or functional assay; remark: listed apart in the source
cynomolgus monkey C2 [4] = target: T2, cynomolgus monkey C2; assay: cell-based or functional assay; remark: listed apart in the source
cynomolgus monkey C2 [5] = target: T2, cynomolgus monkey C2; assay: SPR, mAb captured, cyno C2 analyte, pH 7.3
mouse C2 = target: T3, mouse C2 (mouse, UniProt P21180 19-760, limits assumed); assay: SPR, mAb captured, mouse C2 analyte, pH 7.3
T3 sequence (looked up): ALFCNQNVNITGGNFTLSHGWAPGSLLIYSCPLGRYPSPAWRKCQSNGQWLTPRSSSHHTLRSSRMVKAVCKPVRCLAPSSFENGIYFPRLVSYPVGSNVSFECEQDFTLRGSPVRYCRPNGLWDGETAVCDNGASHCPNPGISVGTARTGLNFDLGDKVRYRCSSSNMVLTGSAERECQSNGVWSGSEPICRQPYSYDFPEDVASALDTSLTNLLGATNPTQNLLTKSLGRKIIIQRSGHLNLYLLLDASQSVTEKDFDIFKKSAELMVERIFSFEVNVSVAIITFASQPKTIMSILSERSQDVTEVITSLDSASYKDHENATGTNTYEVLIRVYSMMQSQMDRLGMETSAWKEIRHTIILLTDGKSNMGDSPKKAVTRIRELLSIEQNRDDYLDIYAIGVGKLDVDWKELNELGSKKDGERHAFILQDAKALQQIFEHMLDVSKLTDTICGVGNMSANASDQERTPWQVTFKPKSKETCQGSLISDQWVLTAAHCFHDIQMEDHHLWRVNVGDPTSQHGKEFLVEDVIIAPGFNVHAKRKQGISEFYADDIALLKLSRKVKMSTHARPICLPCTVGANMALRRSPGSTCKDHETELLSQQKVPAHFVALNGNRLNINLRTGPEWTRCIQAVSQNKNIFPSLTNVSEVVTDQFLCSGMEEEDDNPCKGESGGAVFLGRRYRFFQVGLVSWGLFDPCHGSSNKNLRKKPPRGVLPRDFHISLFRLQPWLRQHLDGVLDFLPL
Procedure: (§1) Surface plasmon resonance (SPR, Biacore) was used for all binding affinity analyses. In brief, goat anti-human IgG was directly immobilised onto the carboxymethyl dextran surface of CM5 sensorchips to approximately 12,000 RU using standard NHS/EDC chemistry at pH 5. The immobilised antibody surface was pre-conditioned with ten injections of polyclonal human IgG (Privigen 60 s) prepared at 1 μg/mL. Ligands (anti-C2 mAbs) were captured at the beginning of each cycle as described below. An adjacent spot or flow cell in which only Polyclonal IgG was capture was used as a reference surface. The goat anti-human IgG Fc antibody surface was regenerate in 100 mM H3PO4, injected for 45 seconds at the end of each cycle. Experiments were performed at 37° C. and the flow rate of each experiment was kept constant at 30 μL/min.
In addition to human C2, the pH dependent anti-C2 antibodies were also tested for their ability to bind to C2 from other mammalian species using the SPR methods described above in order to identify suitable surrogate species for in vivo testing. The antibodies were tested for binding at neutral pH against C2 from cynomolgus monkeys, mice, dogs, rabbits, rats, pigs, and sheep.

human complement C2 [6] = target: T1, human complement C2; assay: SPR, mAb captured, C2 analyte, HBS-EP, pH 7.3
Procedure: as §1
The pH dependent anti-C2 antibodies and their germlined versions were tested for their affinity to C2 at pH 7.3 (neutral pH) and pH 6.0 (early endosome pH) using the SPR methods described above in HBS-EP buffer.

human complement C2 [7] = target: T1, human complement C2; assay: SPR, mAb captured, C2 analyte, MHAs buffer, pH 7.3
Procedure: as §1
This buffer contains ammonium sulfate instead of sodium chloride.

human complement C2 [8] = target: T1, human complement C2; assay: SPR, mAb captured, C2 analyte, HBS-EP, pH 6.0, steady state
human FcRn/β2m [9] = target: T4, human FcRn/β2m (human, UniProt P55899 24-297; P61769 21-119); assay: SPR, antibody immobilised, FcRn/β2m analyte, pH 6.0
T4 construct: Soluble FcRn/β2m injected as analyte over immobilised antibody; also called neonatal Fc receptor
T4 sequence (P55899 24-297 limits assumed, chain 1 of 2): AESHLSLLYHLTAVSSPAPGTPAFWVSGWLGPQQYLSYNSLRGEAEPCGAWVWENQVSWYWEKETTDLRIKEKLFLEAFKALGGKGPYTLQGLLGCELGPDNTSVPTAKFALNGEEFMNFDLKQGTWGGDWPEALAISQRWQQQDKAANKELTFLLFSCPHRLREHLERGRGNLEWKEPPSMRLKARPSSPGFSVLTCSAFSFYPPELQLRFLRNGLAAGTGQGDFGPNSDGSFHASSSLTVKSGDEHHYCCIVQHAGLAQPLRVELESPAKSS
T4 sequence (P61769 21-119 limits assumed, chain 2 of 2): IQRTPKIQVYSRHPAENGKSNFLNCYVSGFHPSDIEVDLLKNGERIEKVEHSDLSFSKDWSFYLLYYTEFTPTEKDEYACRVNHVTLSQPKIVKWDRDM
Procedure: (§2) Anti-C2 mAbs (1 μg/mL at pH 5) were immobilized on a carboxylmethyldextran (CM5) sensorchip surface using standard EDC/NHS chemistry. Human and Cyno FcRn/β2m (40 μM) were prepared in running buffer (10 mM HEPES, 150 mM NaCl, 10 mM MES adjusted to either pH 6 or pH 7.3) and injected on the immobilized anti-C2 surface at concentrations ranging from 0.078 to 40 μM, prepared in two-fold dilutions in running buffer. Association and dissociation phases were monitored for 180 and 600 seconds, respectively. […] Double referenced sensorgrams were fitted to either a 1:1 kinetic model (pH 6), including a term for mass transport limitation or to a 1:1 steady state model (pH 7.3) where responses at the end of the association phase were plotted against respective concentrations.
(§3) Binding to both human and cynomolgus monkey FcRn was tested using the SPR methods described above.

human FcRn/β2m [10] = target: T4, human FcRn/β2m; assay: SPR, antibody immobilised, FcRn/β2m analyte, pH 7.3
Procedure: as §2, §3

[11] = target: T5, human C2a (activated human C2) (human, UniProt P06681 244-752); assay: SPR, HBS-EP, pH 7.3, 37 C
T5 construct: the whole entry is named here; also called huC2a
T5 sequence: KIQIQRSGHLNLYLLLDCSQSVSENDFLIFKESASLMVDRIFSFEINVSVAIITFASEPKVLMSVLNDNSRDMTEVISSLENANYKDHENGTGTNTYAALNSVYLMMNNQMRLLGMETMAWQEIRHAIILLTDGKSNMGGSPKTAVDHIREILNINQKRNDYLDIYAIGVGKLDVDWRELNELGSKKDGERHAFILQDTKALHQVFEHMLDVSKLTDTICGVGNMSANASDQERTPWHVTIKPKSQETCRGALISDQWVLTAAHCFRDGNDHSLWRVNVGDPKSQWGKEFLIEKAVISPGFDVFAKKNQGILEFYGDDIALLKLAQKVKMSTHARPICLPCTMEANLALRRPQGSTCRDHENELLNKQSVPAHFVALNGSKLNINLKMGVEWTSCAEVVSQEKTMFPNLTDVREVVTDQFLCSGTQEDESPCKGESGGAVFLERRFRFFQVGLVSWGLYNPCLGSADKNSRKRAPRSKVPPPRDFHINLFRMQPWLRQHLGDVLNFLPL
Procedure: as §1
(§4) Purified human C2 zymogen and human C2a were tested at concentrations ranging from 1.9 to 500 nM while human C2b was tested at concentrations ranging from 1.9 to 1000 nM. All experiments were performed in HBS-EP buffer supplemented with 0.1% BSA at 37° C. and pH 7.3. Each antibody was tested against human C2 zymogen and human C2a in duplicate and against C2b in quadruplicate. The flow rate was set to 30 μL/min. Each analyte concentration was tested in duplicate.

human C2b = target: T6, human C2b (human, UniProt P06681 21-243); assay: SPR, HBS-EP, pH 7.3, 37 C
T6 construct: the whole entry is named here
T6 sequence: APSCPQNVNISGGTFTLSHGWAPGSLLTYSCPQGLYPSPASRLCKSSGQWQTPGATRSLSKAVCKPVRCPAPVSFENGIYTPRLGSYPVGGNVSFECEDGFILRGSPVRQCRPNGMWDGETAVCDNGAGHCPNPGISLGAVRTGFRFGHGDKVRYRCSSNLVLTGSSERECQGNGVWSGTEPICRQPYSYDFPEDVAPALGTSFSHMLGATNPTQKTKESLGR
Procedure: as §1, §4

[12] = target: T7, human complement C2 zymogen (human, UniProt P06681 21-752); assay: SPR, human C2 zymogen analyte, HBS-EP, pH 7.3, 37 C
T7 construct: also called huC2; human C2
T7 sequence: T1 sequence
Procedure: as §1, §4

B1: RF16-203 (antibody, V domains shown)
VH: EVQLLESGGGLVQPGGSLRLSCAASGFTFSRYYMMWVRQAPGKGLEWVSSIGSSGGTTNYADSVKGRFTISRDNSKNTLYLQMNSLRAEDTATYYCAKGGMVLGVVNIWGQGTLVTVSS
VL: QSALTQPPSVSVSPGQTATITCSGDKLGEKYVSWYQQKPGQSPVVVIFQDIKRPSGIPERFSGSNSGNTATLTISGTQAMDEADYYCQTWGTGGIQVFGGGTKLTVLR
notes: Human antibody from a phage display library
Question: With B1 as the binder, how does the “IC50, inhibition of human classical complement pathway (Wieslab assay)” value (human complement C2 [1]) read?
Answer: 5.4 nM

Question: And the “IC50, inhibition of human lectin complement pathway (Wieslab assay)” value (human complement C2 [1])?
Answer: 1.29 nM

Question: What about the “IC50, inhibition of cynomolgus classical complement pathway (Wieslab assay)” value (cynomolgus monkey C2 [2]) of the same binder?
Answer: 13.3 nM

Question: What about the “IC50, inhibition of cynomolgus lectin complement pathway (Wieslab assay)” value (cynomolgus monkey C2 [2]) of the same binder?
Answer: 112 nM

Question: And the “IC50, inhibition of human classical pathway (hemolysis assay)” value (human complement C2 [3])?
Answer: 42 nM

Question: What about the “IC50, inhibition of cyno classical pathway (hemolysis assay)” value (cynomolgus monkey C2 [4]) of the same binder?
Answer: 361 nM

Question: And the Kd (cynomolgus monkey C2 [5])?
Answer: 2.82 nM

Question: And the Kd (mouse C2)?
Answer: 153 nM

Question: What about the Kd (human complement C2 [6]) of the same binder?
Answer: 2.5 nM

Question: And the Kd (human complement C2 [7])?
Answer: 12.6 nM

Question: What about the Kd (human complement C2 [8]) of the same binder?
Answer: 73 nM

B2: RF16-226 M252Y, N286E, N434Y (antibody, human IgG4 S228P, lambda)
heavy: EVQLVQSGAEVKKPGESLKISCKGSGYSFTSYWIGWVRQMPGKGLEWMGIIYPGDSDTRYSPSFQGQVTISADKSISTAYLQWSSLKASDTAMYYCARRFSYSSGWDMWGQGTLVTVSSASTKGPSVFPLAPCSRSTSESTAALGCLVKDYFPEPVTVSWNSGALTSGVHTFPAVLQSSGLYSLSSVVTVPSSSLGTKTYTCNVDHKPSNTKVDKRVESKYGPPCPPCPAPEFLGGPSVFLFPPKPKDTLYISRTPEVTCVVVDVSQEDPEVQFNWYVDGVEVHEAKTKPREEQFNSTYRVVSVLTVLHQDWLNGKEYKCKVSNKGLPSSIEKTISKAKGQPREPQVYTLPPSQEEMTKNQVSLTCLVKGFYPSDIAVEWESNGQPENNYKTTPPVLDSDGSFFLYSRLTVDKSRWQEGNVFSCSVMHEALHYHYTQKSLSLSLGK
light: SYELTQPPSVSVSPGQTARITCSGDALTSKYVAWYQQKSGLAPLLVIYEDTRRPSGIPAKFSGSSSGSVATLTISGAHGDDEADYYCYSTDASGHQRVFGGGTKLTVLSQPKAAPSVTLFPPSSEELQANKATLVCLISDFYPGAVTVAWKADGSPVKAGVETTKPSKQSNNKYAASSYLSLTPEQWKSHRSYSCQVTHEGSTVEKTVAPTECS
Question: With B2 as the binder, how does the Kd (human FcRn/β2m [9]) read?
Answer: 22 nM

Question: What about the Kd (human FcRn/β2m [10]) of the same binder?
Answer: 3300 nM

B3: RF16-226 M252Y, V308P, N434Y (antibody, human IgG4 S228P, lambda)
heavy: B2 heavy with E285N, V307P
light: B2 light
Question: What does the source list for B3?
Answer: Kd (human FcRn/β2m [9]): 10 nM; Kd (human FcRn/β2m [10]): 1200 nM

B4: RF16-226G YPY (RF16-226G with the M252Y, V308P and N434Y Fc mutations) (antibody, human IgG4 S228P, lambda)
heavy: B2 heavy with E285N, V307P
light: SYELTQPPSVSVSPGQTARITCSGDALTSKYVAWYQQKSGQAPVLVIYEDTRRPSGIPERFSGSSSGTMATLTISGAQVEDEADYYCYSTDASGHQRVFGGGTKLTVLGQPKAAPSVTLFPPSSEELQANKATLVCLISDFYPGAVTVAWKADSSPVKAGVETTTPSKQSNNKYAASSYLSLTPEQWKSHRSYSCQVTHEGSTVEKTVAPTECS
Question: Does B4 bind [11]?
Answer: no binding (tested: C2a tested up to 500 nM)

Question: Does B4 bind (human C2b)?
Answer: no binding (tested: C2b tested up to 1000 nM)

Question: What about the Kd [12] of the same binder?
Answer: 8 nM
